Measurements as given in patent US20250388640A1 (SYNTHEKINE, published 2025).

Assays:
[1] = molecular target: T1, hIL-12 receptor signaling complex (hIL-12Rβ1 and hIL-12Rβ2) (human, UniProt P42701 24-662; Q99665 24-862); test: cell-based or functional assay
[2] = molecular target: T1, hIL-12 receptor signaling complex …; test: cell-based or functional assay; remark: listed apart in the source

T1 sequence (Q99665 24-862, chain 2 of 2, other chains not shown): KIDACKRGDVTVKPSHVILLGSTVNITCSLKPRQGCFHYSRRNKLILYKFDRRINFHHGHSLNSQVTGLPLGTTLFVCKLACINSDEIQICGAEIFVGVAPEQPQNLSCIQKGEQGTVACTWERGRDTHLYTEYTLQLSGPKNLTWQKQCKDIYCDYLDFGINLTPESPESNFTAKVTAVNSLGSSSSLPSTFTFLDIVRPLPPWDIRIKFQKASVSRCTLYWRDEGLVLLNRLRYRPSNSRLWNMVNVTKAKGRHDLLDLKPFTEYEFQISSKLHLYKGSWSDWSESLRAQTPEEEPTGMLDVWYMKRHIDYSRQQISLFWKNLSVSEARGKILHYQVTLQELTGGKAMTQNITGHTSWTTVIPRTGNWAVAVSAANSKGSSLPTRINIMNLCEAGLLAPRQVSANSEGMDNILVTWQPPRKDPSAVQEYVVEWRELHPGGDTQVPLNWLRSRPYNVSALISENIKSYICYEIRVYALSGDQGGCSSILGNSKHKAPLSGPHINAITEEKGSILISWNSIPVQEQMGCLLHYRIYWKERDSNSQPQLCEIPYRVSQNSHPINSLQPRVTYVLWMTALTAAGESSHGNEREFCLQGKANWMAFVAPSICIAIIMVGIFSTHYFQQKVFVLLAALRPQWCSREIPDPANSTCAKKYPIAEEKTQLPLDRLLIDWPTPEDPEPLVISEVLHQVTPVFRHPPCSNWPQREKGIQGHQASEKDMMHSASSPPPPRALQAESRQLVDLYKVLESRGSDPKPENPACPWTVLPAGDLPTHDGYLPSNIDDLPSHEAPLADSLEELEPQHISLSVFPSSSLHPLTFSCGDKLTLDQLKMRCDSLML

Binder | pSTAT4 [%+] EC50, CD8+ T Cells [1] | pSTAT4 [%+] EC50, CD56hi NK Cells [1] [nM] | pSTAT4 [%+] Emax, CD8+ T Cells [1] [%+] | pSTAT4 [%+] Emax, CD56hi NK Cells [1] [%+] | pSTAT4 [gMFI] EC50, CD8+ T Cells [2] [nM] | pSTAT4 [gMFI] EC50, CD56hi NK Cells [2] [nM] | pSTAT4 [gMFI] Emax, CD8+ T Cells [2] [gMFI] | pSTAT4 [gMFI] Emax, CD56hi NK Cells [2] [gMFI]
human IL12 mutein, hIL-12p40 E81A, F82T with hIL-12p35-8X His (ligand) chain 1: IWELKKDVYVVELDWYPDAPGEMVVLTCDTPEEDGITWTLDQSSEVLGSGKTLTIQVKATGDAGQYTCHKGGEVLSHSLLLLHKKEDGIWSTDILKDQKEPKNKTFLRCEAKNYSGRFTCWWLTTISTDLTFSVKSSRGSSDPQGVTCGAATLSAERVRGDNKEYEYSVECQEDSACPAAEESLPIEVMVDAVHKLKYENYTSSFFIRDIIKPDPPKNLQLKPLKNSRQVEVSWEYPDTWSTPHSYFSLTFCVQVQGKSKREKKDRVFTDKTSATVICRKNASISVRAQDRYYSSSWSEWASVPCS chain 2: RNLPVATPDPGMFPCLHHSQNLLRAVSNMLQKARQTLEFYPCTSEEIDHEDITKDKTSTVEACLPLELTKNESCLNSRETSFITNGSCLASRKTSFMMALCLSSIYEDLKMYQVEFKTMNAKLLMDPKRQIFLDQNMLAVIDELMQALNFNSETVPQKSSLEEPDFYKTKIKLCILLHAFRIRAVTIDRVMSYLNASGSHHHHHHHH | 0.87 nM | 1.9 | 81.2 | 88.2 | 4.5 | 10.3 | 101000 | 29300
human IL12 mutein, hIL-12p40 E81A, F82W with hIL-12p35-8X His (ligand) chain 1: IWELKKDVYVVELDWYPDAPGEMVVLTCDTPEEDGITWTLDQSSEVLGSGKTLTIQVKAWGDAGQYTCHKGGEVLSHSLLLLHKKEDGIWSTDILKDQKEPKNKTFLRCEAKNYSGRFTCWWLTTISTDLTFSVKSSRGSSDPQGVTCGAATLSAERVRGDNKEYEYSVECQEDSACPAAEESLPIEVMVDAVHKLKYENYTSSFFIRDIIKPDPPKNLQLKPLKNSRQVEVSWEYPDTWSTPHSYFSLTFCVQVQGKSKREKKDRVFTDKTSATVICRKNASISVRAQDRYYSSSWSEWASVPCS chain 2: RNLPVATPDPGMFPCLHHSQNLLRAVSNMLQKARQTLEFYPCTSEEIDHEDITKDKTSTVEACLPLELTKNESCLNSRETSFITNGSCLASRKTSFMMALCLSSIYEDLKMYQVEFKTMNAKLLMDPKRQIFLDQNMLAVIDELMQALNFNSETVPQKSSLEEPDFYKTKIKLCILLHAFRIRAVTIDRVMSYLNASGSHHHHHHHH | 0.29 nM | 0.39 | 84.1 | 88.4 | 1.22 | 1.82 | 111000 | 30700
human IL12 mutein, hIL-12p40 E81A, F82Y with hIL-12p35-8X His (ligand) chain 1: IWELKKDVYVVELDWYPDAPGEMVVLTCDTPEEDGITWTLDQSSEVLGSGKTLTIQVKAYGDAGQYTCHKGGEVLSHSLLLLHKKEDGIWSTDILKDQKEPKNKTFLRCEAKNYSGRFTCWWLTTISTDLTFSVKSSRGSSDPQGVTCGAATLSAERVRGDNKEYEYSVECQEDSACPAAEESLPIEVMVDAVHKLKYENYTSSFFIRDIIKPDPPKNLQLKPLKNSRQVEVSWEYPDTWSTPHSYFSLTFCVQVQGKSKREKKDRVFTDKTSATVICRKNASISVRAQDRYYSSSWSEWASVPCS chain 2: RNLPVATPDPGMFPCLHHSQNLLRAVSNMLQKARQTLEFYPCTSEEIDHEDITKDKTSTVEACLPLELTKNESCLNSRETSFITNGSCLASRKTSFMMALCLSSIYEDLKMYQVEFKTMNAKLLMDPKRQIFLDQNMLAVIDELMQALNFNSETVPQKSSLEEPDFYKTKIKLCILLHAFRIRAVTIDRVMSYLNASGSHHHHHHHH | 90 pM | 0.19 | 83.5 | 91.7 | 0.37 | 1.19 | 108000 | 35700
human IL12 mutein, hIL-12p40 E81A, F82V with hIL-12p35-8X His (ligand) chain 1: IWELKKDVYVVELDWYPDAPGEMVVLTCDTPEEDGITWTLDQSSEVLGSGKTLTIQVKAVGDAGQYTCHKGGEVLSHSLLLLHKKEDGIWSTDILKDQKEPKNKTFLRCEAKNYSGRFTCWWLTTISTDLTFSVKSSRGSSDPQGVTCGAATLSAERVRGDNKEYEYSVECQEDSACPAAEESLPIEVMVDAVHKLKYENYTSSFFIRDIIKPDPPKNLQLKPLKNSRQVEVSWEYPDTWSTPHSYFSLTFCVQVQGKSKREKKDRVFTDKTSATVICRKNASISVRAQDRYYSSSWSEWASVPCS chain 2: RNLPVATPDPGMFPCLHHSQNLLRAVSNMLQKARQTLEFYPCTSEEIDHEDITKDKTSTVEACLPLELTKNESCLNSRETSFITNGSCLASRKTSFMMALCLSSIYEDLKMYQVEFKTMNAKLLMDPKRQIFLDQNMLAVIDELMQALNFNSETVPQKSSLEEPDFYKTKIKLCILLHAFRIRAVTIDRVMSYLNASGSHHHHHHHH | 0.76 nM | 1.15 | 80.9 | 89.3 | 4.33 | 17.2 | 102000 | 36800
human IL12 mutein, hIL-12p40 E81A, F82R with hIL-12p35-8X His (ligand) chain 1: IWELKKDVYVVELDWYPDAPGEMVVLTCDTPEEDGITWTLDQSSEVLGSGKTLTIQVKARGDAGQYTCHKGGEVLSHSLLLLHKKEDGIWSTDILKDQKEPKNKTFLRCEAKNYSGRFTCWWLTTISTDLTFSVKSSRGSSDPQGVTCGAATLSAERVRGDNKEYEYSVECQEDSACPAAEESLPIEVMVDAVHKLKYENYTSSFFIRDIIKPDPPKNLQLKPLKNSRQVEVSWEYPDTWSTPHSYFSLTFCVQVQGKSKREKKDRVFTDKTSATVICRKNASISVRAQDRYYSSSWSEWASVPCS chain 2: RNLPVATPDPGMFPCLHHSQNLLRAVSNMLQKARQTLEFYPCTSEEIDHEDITKDKTSTVEACLPLELTKNESCLNSRETSFITNGSCLASRKTSFMMALCLSSIYEDLKMYQVEFKTMNAKLLMDPKRQIFLDQNMLAVIDELMQALNFNSETVPQKSSLEEPDFYKTKIKLCILLHAFRIRAVTIDRVMSYLNASGSHHHHHHHH | 0.98 nM | 1.36 | 80.2 | 86.9 | 5.54 | 7.62 | 101000 | 28000
human IL12 mutein, hIL-12p40 E81A, F82D with hIL-12p35-8X His (ligand) chain 1: IWELKKDVYVVELDWYPDAPGEMVVLTCDTPEEDGITWTLDQSSEVLGSGKTLTIQVKADGDAGQYTCHKGGEVLSHSLLLLHKKEDGIWSTDILKDQKEPKNKTFLRCEAKNYSGRFTCWWLTTISTDLTFSVKSSRGSSDPQGVTCGAATLSAERVRGDNKEYEYSVECQEDSACPAAEESLPIEVMVDAVHKLKYENYTSSFFIRDIIKPDPPKNLQLKPLKNSRQVEVSWEYPDTWSTPHSYFSLTFCVQVQGKSKREKKDRVFTDKTSATVICRKNASISVRAQDRYYSSSWSEWASVPCS chain 2: RNLPVATPDPGMFPCLHHSQNLLRAVSNMLQKARQTLEFYPCTSEEIDHEDITKDKTSTVEACLPLELTKNESCLNSRETSFITNGSCLASRKTSFMMALCLSSIYEDLKMYQVEFKTMNAKLLMDPKRQIFLDQNMLAVIDELMQALNFNSETVPQKSSLEEPDFYKTKIKLCILLHAFRIRAVTIDRVMSYLNASGSHHHHHHHH | 2.13 nM | 3.51 | 76.6 | 84.1 | 8.72 | 15.9 | 84000 | 23300
